Patent publication US20070134724
Where a chain is given by its changes, count along the chain named.

B1: abl2 tyrosine kinase (protein)
chain: GQQVGRVGEAPGLQQPQPRGIRGSSAARPSGRRRDPAGRTTETGFNIFTQHDHFASCVEDGFEGDKTGGSSPEALHRPYGCDVEPQALNEAIRWSSKENLLGATESDPNLFVALYDFVASGDNTLSITKGEKLRVLGYNQNGEWSEVRSKNGQGWVPSNYITPVNSLEKHSWYHGPVSRSAAEYLLSSLINGSFLVRESESSPGQLSISLRYEGRVYHYRINTTADGKVYVTAESRFSTLAELVHHHSTVADGLVTTLHYPAPKCNKPTVYGVSPIHDKWEMERTDITMKHKLGGGQYGEVYVGVWKKYSLTVAVKTLKEDTMEVEEFLKEAAVMKEIKHPNLVQLLGVCTLEPPFYIVTEYMPYGNLLDYLRECNREEVTAVVLLYMATQISSAMEYLEKKNFIHRDLAARNCLVGENHVVKVADFGLSRLMTGDTYTAHAGAKFPIKWTAPESLAYNTFSIKSDVWAFGVLLWEIATYGMSPYPGIDLSQVYDLLEKGYRMEQPEGCPPKVYELMRACWKWSPADRPSFAETHQAFETMFHDSSISEEVAEELGRAASSSSVVPYLPRLPILPSKTRTLKKQVENKENIEGAQDATENSASSLAPGFIRGAQASSGSPALPRKQRDKSPSSLLEDAKETCFTRDRKGGFFSSFMKKRNAPTPPKRSSSFREMENQPHKKYELTGNFSSVASLQHADGFSFTPAQQEANLVPPKCYGGSFAQRNLCNDDGGGGGGSGTAGGGWSGITGFFTPRLIKKTLGLRAGKPTASDDTSKPFPRSNSTSSMSSGLPEQDRMAMTLPRNCQRSKLQLERTVSTSSQPEENVDRANDMLPKKSEESAAPSRERPKAKLLPRGATALPLRTPSGDLAITEKDPPGVGVAGVAAAPKGKEKNGGARLGMAGVPEDGEQPGWPSPAKAAPVLPTTHNHKVPVLISPTLKHTPADVQLIGTDSQGNKFKLLSEHQVTSSGDKDRPRRVKPKCAPPPPPVMRLLQHPSICSDPTEEPTALTAGQSTSETQEGGKKAALGAVPISGKAGRPVMPPPQVPLPTSSISPAKMANGTAGTKVALRKTKQAAEKISADKISKEALLECADLLSSALTEPVPNSQLVDTGHQLLDYCSGYVDCIPQTRNKFAFREAVSKLELSLQELQVSSAAAGVPGTNPVLNNLLSCVQEISDVVQR
B2: Gleevec-resistant abl2 (T3611 form) (protein)
chain: B1 chain with T360I

What was measured:
[1] = biological target: tau, shortest isoform (tau352)
Chain of tau, shortest isoform (tau352) (chain, as listed by the source): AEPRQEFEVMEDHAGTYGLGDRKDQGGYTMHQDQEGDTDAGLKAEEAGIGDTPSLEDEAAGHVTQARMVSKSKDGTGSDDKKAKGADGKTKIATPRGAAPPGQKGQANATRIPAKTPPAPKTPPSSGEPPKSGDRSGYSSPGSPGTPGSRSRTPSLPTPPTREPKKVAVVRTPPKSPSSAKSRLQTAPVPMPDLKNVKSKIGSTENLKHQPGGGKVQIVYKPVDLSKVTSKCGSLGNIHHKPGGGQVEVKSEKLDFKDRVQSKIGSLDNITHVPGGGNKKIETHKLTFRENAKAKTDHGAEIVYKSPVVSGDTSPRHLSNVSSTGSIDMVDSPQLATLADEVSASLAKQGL

Protein | phosphorylation of Y-to-F tau mutants co-transfected with abl2 (western blot with anti-pY) (tau) | phosphorylation of tau at Y310 (western blot with YP21) (tau) | phosphorylation of the long (4R) isoform co-transfected with abl2 (western blot, sandwich ELISA) (tau) | tyrosine phosphorylation of tau with and without Gleevec (western blot, ELISA) (tau) | phosphorylation of the short (3R) isoform co-transfected with abl2 (western blot, sandwich ELISA) [1] | tyrosine phosphorylation of tau in the presence of Gleevec (western blot, ELISA) (tau)
B1 | Abl2 strongly phosphorylates Y394, with lower levels of phosphorylation at Y197 and Y310 | demonstrating phosphorylation of tau at Y310 | Y394 was the predominant site of abl2 phosphorylation | Abl1 or abl2 transfected into the cell is what directly phosphorylates tau | Y394 was the predominant site of abl2 phosphorylation | –
B2 | – | – | – | – | – | In the presence of Gleevec, both forms could phosphorylate tau
